Results from patent US20220387487A1, “COMPOSITIONS AND METHODS FOR TREATMENT OF CANCER” (Aleta Biotherapeutics Inc., priority 2019, published 2022).
Residue numbers refer to the chain shown, from its start. Values joined by “and” are separate entries in the source; they are usually repeats but may differ in a detail not shown here. Equal values may be shown once. Blank lines part the entries; values can stand above or below the molecule they belong to.

Experiments:
[1] = biological target: T1, CLL-1 (CLEC12A) on CLL-1 positive cell lines (U937, OCI-AML-5) (human, UniProt Q5QGZ9 1-265); assay: cell-based or functional assay
T1 sequence: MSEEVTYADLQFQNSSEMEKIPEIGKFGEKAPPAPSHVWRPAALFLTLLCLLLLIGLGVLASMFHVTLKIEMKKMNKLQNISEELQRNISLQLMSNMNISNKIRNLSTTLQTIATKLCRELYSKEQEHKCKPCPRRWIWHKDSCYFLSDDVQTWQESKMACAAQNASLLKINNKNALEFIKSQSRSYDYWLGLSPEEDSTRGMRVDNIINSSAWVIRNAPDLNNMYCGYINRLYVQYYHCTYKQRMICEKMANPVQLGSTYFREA

[2] = biological target: T2, full-length CLEC12A, amino acid 254 K version, on transfected HEK-293T cells (Homo sapiens (Human), UniProt Q5QGZ9 1-265); assay: flow cytometry on transfected HEK-293T cells, HIB19-PE detection
T2 construct: GenScript cDNA, UniProt Q5QGZ9-1 as printed; also called K form; K version of CLEC12A
T2 sequence: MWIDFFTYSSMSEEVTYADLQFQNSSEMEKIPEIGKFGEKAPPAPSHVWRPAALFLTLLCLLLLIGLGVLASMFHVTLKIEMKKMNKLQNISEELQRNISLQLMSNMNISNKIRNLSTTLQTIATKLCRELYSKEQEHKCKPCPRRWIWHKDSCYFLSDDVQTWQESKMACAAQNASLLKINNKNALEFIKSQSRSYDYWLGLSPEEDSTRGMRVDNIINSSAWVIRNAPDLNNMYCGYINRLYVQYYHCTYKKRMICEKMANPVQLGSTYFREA

[3] = biological target: T1, CLL-1 (CLEC12A) on CLL-1 positive cell …; assay: flow cytometry on CLL-1 positive U937 cells, FMC63-PE detection
[4] = biological target: CLEC12A as named in the ELISA column of Table 8 (UniProt Q5QGZ9); assay: ELISA (protocol as printed: FMC63 coat, fusion protein titrated, HRP anti-His)
biotinylated CD33 = biotinylated CD33 (UniProt P20138 18-259, biotinylated (site not stated)); assay: ELISA: fusion protein captured on FMC63, biotinylated CD33 at 0.5 µg/ml, HRP-SA
[5] = biological target: T1, CLL-1 (CLEC12A) on CLL-1 positive cell …; assay: flow cytometry on U937 cells, purified fusion protein, a-His-PE detection, % Binding
[6] = biological target: T1, CLL-1 (CLEC12A) on CLL-1 positive cell …; assay: flow cytometry on CLL-1 positive U937 cells, expressed fusion protein, detection with FMC63-PE, % Binding
[7] = biological target: T1, CLL-1 (CLEC12A) on CLL-1 positive cell …; assay: flow cytometry on U937 cells (cell line per paragraph 272), purified fusion protein, detection with FMC63-PE, % Binding
[8] = biological target: T3, full-length CLEC12A, version with Q at amino acid 254, on transfected HEK-293T cells (Homo sapiens (Human), UniProt Q5QGZ9 1-265); assay: flow cytometry on HEK-293T cells transfected with CLEC12A 'Q' version, purified fusion protein, detection with HIB19-PE, % Binding
T3 construct: Generated by mutagenesis of the K version; also called Q form
T3 sequence: T2 sequence with K254Q

CLEC12A = biological target: T4, CLEC12A (Homo sapiens, UniProt Q5QGZ9); details: CLEC12A from AbClonal or cDNA from Genscript; previous studies; cited from earlier work
T4 construct: literature AbClonal (protein); Genscript (cDNA)
T4 sequence (Q5QGZ9 1-275 isoform Q5QGZ9-1): T2 sequence

fold weaker binding than to the Q form [2]: > 10000 fold
EC50 [3]: 1 nM
EC50 [4]: 0.013 nM
binding result (biotinylated CD33): no binding
EC50 [5]: 0.00114 µg/mL and 0.0261 nM
EC50 [6]: 0.0449 µg/mL
EC50 [7]: 0.00406 µg/mL and 0.0865 nM
EC50 [8]: 0.0048 nM and 0.00021 µg/mL
B1: anti-CLL-1 VHH(2H3)-CD19 variant (construct #330) (other)
chain: QVQLQESGGGLVQAGGSLRLSCVASGSIRSINVMGWYRQAPGKQRELVAACASDGNTYYADSVKGRFTISRDNAEKTVYLQMNNLKPDDTAVYYCDANSRGNYYSGQGTQVTVSSTSGPGGQGAGGGGSGGGGSGGGGSGGGGSPEEPLVVKVEEGDTAALWCLKGTSDGPTQQLTWSRESPLKPFLKYSLGVPGLGVHVRPDAISVVIRNVSQQMGGFYLCQPGPPSEKAWQPGWTVNVEGSGELFRWNVSDLGGLGCGLKNRSSEGPSSPSGKLMSPKLYVWAKDRPEIWEGEPPCLPPRDSLNQSLSRDLTVAPGSTLWLSCGVPPDSVSRGPLSWTHVHPKGPKSLLSLELKDDRPARDMWVMGTSLMLPRATAQDAGKWYCHRGNLTMSFHLEITARPSRHHHHHH
notes: Fusion of anti-CLL-1 VHH 2H3, linker, CD19 variant extracellular domain and His tag; also called fusion protein #330; single VHH #330 fusion protein
CLEC12A-cell cytotoxicity (IC50 n = 2-3) [1]: 7.8 pM

B2: VHH clone 2H3: anti-CLL-1/CLEC12A VHH (protein)
VHH: QVQLQESGGGLVQAGGSLRLSCVASGSIRSINVMGWYRQAPGKQRELVAACASDGNTYYADSVKGRFTISRDNAEKTVYLQMNNLKPDDTAVYYCDANSRGNYYSGQGTQVTVSS
binding to CLEC12A containing a Lysine residue at amino acid 254 (CLEC12A): did not bind
